We go through 16 molecules from patent US20240218054A1 (MABLOC, published 2024).

First the molecules themselves.
B1: ADI-50539 (antibody, V domains shown)
VH: EVQLVESGPGLVKPSGTLSLTCAVSGGSISSSNWWSWVRQPPGKGLEWIGEIYHSGSTNYNPSLKSRVTISVDKSKNQFSLKLSSVTAADTAVYYCARARWEDGNYYYGMDVWGQGTTVTVSS
VL: QPVLTQPPSVSAAPGQKVTISCSGSSSNIGNNYVSWYQQLPGTAPKLLIYDNNKRPSGIPDRFSGSKSGTSATLGITGLQTGDEADYYCGTWDSSLSAVVFGGGTKVTVL
notes: full-length IgG; also called Antibody Number 134
B2: ADI-42786 (antibody, V domains shown)
VH: EVQLVESGPGLVKPSGTLSLTCAVSGGSISSSYWWSWVRQSPGKGLEWIGEVYHSGSTHYNPSLKSRVTISVDKSKNQFSLKLTSVTAADTAVYYCARDGEGHYYRSGDNWFDRWGQGTLVTVSS
VL: B1 VL with P2S, N31S, L40F, N53S, K67M
notes: full-length IgG; also called Antibody Number 15
B3: ADI-42114 (antibody, V domains shown)
VH: EVQLLESGGGLVKPGGSLRLSCAASGFTFSSYSMNWVRQAPGKGLEWVSSISSSSSYIYYADSVKGRFTISRDNAKNSLYLQMNSLRAEDTAVYYCARDSWGPFDYWGQGTLVTVSS
VL: B1 VL with P2S, V99K, V107L
notes: full-length IgG; also called Antibody Number 143
B4: ADI-50533 (antibody, V domains shown)
VH: QVQLQESGPGLVKPSGTLSLTCAVSGGSISSSNWWSWVRQPPGKGLEWIGEIYHSGSTNYNPSLKSRVTISVDKSKNQFSLKLSSVTAADTAVYYCARVVWYSSSSHLFDYWGQGTLVTVSS
VL: QPVLTQPPSVSAAPGQKVTISCSGSSSNIGNNYVSWYQQLPGTAPKLLIYDNNKRPSGIPDRFSGSKSGTSATLGITGLQTGDEADYYCGTWDSSLSAGKVFGGGTKLTVL
notes: full-length IgG; also called Antibody Number 147
B5: ADI-48951 (antibody, V domains shown)
VH: EVQLLESGPGLVKPSGTLSLTCAVSGASISSNNWWSWVRQSPGKGLEWIGEIFHSGTTNYNPSLKSRVTISVDKSKNQFSLKLNSVTAADTAVYYCARDVGVAAVITGSVRWGQGTLVTVSS
VL: DIVLTQSPDSLAVSLGERAAINCKSSQSVFFSSDNKNYLAWYQQKPGQPPKLLIYWASTRESGVPDRFSGSGSGTDFTLTISSLQAEDVAVYYCQQFYTTPSTFGQGTKVEIK
notes: full-length IgG; also called Antibody Number 138
B6: ADI-48950 (antibody, V domains shown)
VH: EVQLVESGGGVVQPGRSLRLSCAVSGFTFSTSPLHWVRQAPGKGLEWVAVSSFVATDKYYADSVKGRFTVSRDNSKNTLYLQMNSLRPEDTAVYYCARGFGELPGFDIWGQGTMVTVSS
VL: SYVLTQPPSASGSPGQSVTISCTGTSSDFGGYNYVSWYQQHPGKAPKLMVYEVAKRPSGVPDRFSGSKSGNTASLTVSGLQAEDEADYYCSSYAGSNNFVVFGGGTKLTVL
notes: full-length IgG; also called Antibody Number 142
B7: ADI-50200 (antibody, V domains shown)
VH: EVQLLESGGDLVQPGRSLRLSCAASGFNLIDYAMHWVRQVPGKGLEWVSGISWNSRSIGYADSVKGRFTISRDNAKNSLYLQMDSLKHEDTALFYCAKGAAAGPFPYFYYAMDVWGQGTTVTVSS
VL: DIQVTQSPSSLSASVGDRVTITCRASQGISNNLAWYQQKPGIFPKLLIYAASTLQSGVPSRFSGSGSGTDFILTISSLQPEDVATYYCQKYQSAPPTFGGGTKLEIK
notes: full-length IgG
B8: ADI-42217 (antibody, V domains shown)
VH: EVQLVESGGGVVQPGRSLRLSCADSGFTFSYSAIHWVRQAPGKGLEWVAVISYDGSNKYYADSVKGRFTISRDNSKNTLYLQMNSLRPEDTAVYYCARHSGGYSSKDKPTEYFQHWGQGTLVTVSS
VL: QSVLTQPPSVSGAPGQRVTISCTGSSSDIGAGYDVHWYQQLPGTAPKLLIYGNTNRPSGVPDRFSGSKSGTSASLAITGLQAEDEADYYCQSYDSSLSGVVFGGGTKLTVL
notes: full-length IgG
B9: ADI-49030 (antibody, V domains shown)
VH: QVQLVQSGGGLVQPGGSLRLSCAASGFTFSDHYMDWVRQAPGKGLEWVGRTRNKANSYTTEYAASVKGRFTISRDDSKNSLYLQMNSLKTEDTAVYYCAGVGITGTTGIDYWGQGTLVTVSS
VL: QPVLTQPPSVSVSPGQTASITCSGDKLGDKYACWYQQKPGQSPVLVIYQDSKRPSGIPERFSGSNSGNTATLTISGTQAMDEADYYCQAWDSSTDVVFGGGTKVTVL
notes: full-length IgG; also called Antibody Number 151
B10: ADI-42124 (antibody, V domains shown)
VH: EVQLLESGGGLVQPGGSLRLSCAASGFTFSSYAMSWVRQAPGKGLELVSAISSSGGSTYYADSVKGRFTISRDNSKNTLYLQMNSLRAEDTALYYCAKDLFYDFWTGITIDYWGQGTLVTVSS
VL: QPVLTQPRSVSGSPGQSVTISCTGTSSDVGGYNYVSWYQQHPGKAPKLMIYDVSKRPSGVPDRFSGSKSGNTASLTISGLQAEDEADYYCCSYAGSYTFVLFGGGTKLTVL
notes: full-length IgG
B11: ADI-49194 (antibody, V domains shown)
VH: EVQLVESGGAVVQPGRSLRLSCAASGFTFSSYGMHWVRQAPGKGLESVAVIWYDGSNKNYADSVKGRFTISRDNSKNTLFLQMNSLRAEDSAMYYCAKTYDSRAYYYLDYWGQGTLVTVSS
VL: ETTLTQSPSTLSTSVGDRVTITCRASQSISSWLAWYQQKPGKAPKLLIYRASSLETEVPSRFSGSGSGTDFTLTISRLQPDDFATYFCQQYNRYPYTFGQGTKLEIK
notes: full-length IgG
B12: ADI-46737 (antibody, V domains shown)
VH: QVQLVQSGGGVVQPGRSLRLSCAASGFTFSSYAMHWVRQAPGKGLEWVAVISYDGSNKYYADSVKGRFTISRDNSKNTLYLQMNSLRAEDTAVYYCARDGAGDYIWGSYRHKGLHYYYGMDVWGQGTTVTVSS
VL: DIQLTQSPSSLSASVGDRVTITCRASQGIRNDLGWYQQKPGKAPKRLIYAASSLQSGVPSRFSGSGSGTEFTLTISSLQPEDFATYYCLQHNSYPLTFGGGTKVEIK
notes: full-length IgG; also called Antibody Number 140
B13: ADI-45123 (antibody, V domains shown)
VH: EVQLLESGGGLVQPGGSLRLSCAASGFIFSNYWMSWVRQAPGKGLEWVANIKPDGSEKYYVESVRGRFTISRDNAKNSLYLQMNSLRAEDTAVFYCARDGGTVSDGLDVWGQGTTVTVSS
VL: DIRVTQSPSSLSASVGDRVTISCRASESISIYLNWYQQKPGKAPNLLIYAASSLQRGVPSRFSGSGSGTDFTLTITSLQAEDFATYYCQQTFSIWTFGQGTKVEIK
notes: full-length IgG
B14: ADI-50537 (antibody, V domains shown)
VH: QVQLVQSGSELKKPGASVKVSCKASGYTFTSYAMNWVRQAPGQGLEWMGWINTNTGNPTYAQGFTGRFVFSLDTSVSTAYLQISSLKAEDTAVYYCARGYCSSTSCYGGLYWFDPWGQGTLVTVSS
VL: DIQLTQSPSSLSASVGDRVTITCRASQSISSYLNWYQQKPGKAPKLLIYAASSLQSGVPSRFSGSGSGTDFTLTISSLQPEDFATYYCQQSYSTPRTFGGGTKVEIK
notes: full-length IgG; also called Antibody Number 139
B15: ADI-45151 (antibody, V domains shown)
VH: EVQLLESGGGVVQPGKSLRLSCAASGFSFGDYGMHWVRQTPDKGLEWVAVILFDGSKKFYADSVRGRFTISRDNSKNNLYLQMSSLRPEDTAVYYCAKFPLRDGGSGEGFDYWGQGTLVTVSS
VL: DIVMTQTPLSSPVTLGQPASISCRSSQSLVHSDGNTYLSWLQQRPGQPPRFLIYKISNRFSGVPDRFSGGGAGTDFTLKISRVEAEDVGVYYCMQASQFPLTFGGGTKVEIK
notes: full-length IgG; also called Antibody Number 149
B16: ADI-49205 (antibody, V domains shown)
VH: EVQLVESGGGVVQTGRSLRLSCAASGFTFSISGMHWVRQAPGKGLEWVALIWYDGTKKYYADSVKGRFTISRDDFKNTVYLQMNSLRADDTAVYYCARIKSDAFDLWGQGTTVTVSS
VL: QSALTQPPSASGSPGQSVTISCTGTSSDVGGFNYVSWYQQHPGRAPKLVIYEVNRRPSGVPDRFSGSKSGYTASLTVSGLQAEDEADYYCFSYAGSNNYVFGTGTKVTVL
notes: full-length IgG; also called Antibody Number 148

Substitutions are numbered along the chain they refer to. Bounds are passed on as bounds.

For orientation: Kd means the equilibrium constant for the complex coming apart.

The target in the assay is T1, recombinant YFV E protein (soluble E, sE; YFV Asibi strain) (Yellow fever virus, Asibi strain, UniProt Q6DV88 286-678).
T1 construct: also called YFV E antigen; YFV E monomer
T1 sequence (Q6DV88 286-678): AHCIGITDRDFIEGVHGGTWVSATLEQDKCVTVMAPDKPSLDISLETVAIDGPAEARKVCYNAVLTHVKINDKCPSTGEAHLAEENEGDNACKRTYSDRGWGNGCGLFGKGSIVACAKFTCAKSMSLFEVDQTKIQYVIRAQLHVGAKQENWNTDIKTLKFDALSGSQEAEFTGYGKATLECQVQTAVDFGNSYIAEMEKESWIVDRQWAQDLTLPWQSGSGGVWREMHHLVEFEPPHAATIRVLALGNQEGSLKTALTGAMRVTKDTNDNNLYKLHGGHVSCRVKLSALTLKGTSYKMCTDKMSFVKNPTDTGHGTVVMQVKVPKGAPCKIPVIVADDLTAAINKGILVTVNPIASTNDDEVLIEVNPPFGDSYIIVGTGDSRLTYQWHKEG
Kind of assay: BLI monovalent (IgG on tip).
As to B1, the dissociation constant Kd was over 100 nM.
The same measure for B2: 12.7 nM.
The same measure for B3: over 100 nM.
Take B4: the Kd was over 100 nM.
Consider B5, for which the Kd came out at 2.67 nM.
The same measure for B6: 1.53 nM; for B7: over 100 nM; for B8: 4 nM.
The same measure for B9: 125 nM; for B10: 5.88 nM.
Regarding B11, the Kd was found to be 234 nM.
The same measure for B12: over 100 nM; for B13: 2.1 nM.
B14: the Kd is over 100 nM.
The same measure for B15: over 100 nM; for B16: 12.9 nM.
